B1: 3C11: anti-CDCP1 murine monoclonal antibody (hybridoma); VH SEQ ID NO: 240, VL SEQ ID NO: 291 (antibody, V domains shown)
VH: EVQLQQSGTVLARPGASVKMSCKASGYNFISYWLHWIKQRPGQGLEWIGGIYPGNTDTTYNQKFKGKAKVTAVTSATTAYMELSSLTNEDSAVYYCIRYDYDRGMDYWGQGTTVTVSS
VL: DIQMTQSPSSFSVSLGDRVTITCRASEDIYYRLAWYQQKPGNAPRLLISGATALETGVPSRFSGSGSGKDYTLSITSLQTEDVATYYCQHYWNIPWTFGGGTKLEIK
modifications: 3C11 heavy chain variable region; 3C11 light chain variable region
B2: 3B12H5: anti-CDCP1 murine monoclonal antibody (hybridoma); VH SEQ ID NO: 239, VL SEQ ID NO: 290 (antibody, V domains shown)
VH: EVQLQQSGTVLARPGASVKMSCKASGYSFTIYWVHWVKQRPGQGLEWIGAVYPGNDDTSYNQNFKGKAKLTAVTSATTAYMELSSLTIDDSAVYYCTRHTYDEVFDYWGQGTTVTVSS
VL: DIVMTQSPSSLSVSLGDRVTITCKASEDIYYRLAWYQQKPGNAPRLLISGGTNLEAGIPSRFSGSGSGKDYTLSITSLQTEDVAIYYCQHYWNTPWTFGGGTKLEIK
modifications: 3B12H9/3B12H5 heavy chain variable region; 3B12H5 light chain variable region
B3: 8E5: anti-CDCP1 murine monoclonal antibody (hybridoma); VH SEQ ID NO: 258, VL SEQ ID NO: 308 (antibody, V domains shown)
VH: EVQLKESGPELKKPGETVKISCKASGYTLTDFSMHWLKQAPGKGLKWMGWINTETGAPTYADDFKGRFALSLDTSANTAYLQINNLKNEDTATYFCSRGRDYDPHFDYWGQGTTVTVSS
VL: EIVLTQSPATLSVTPGDRVSLSCRASQSISDFLHWYQQRSHESPRLLIKYASQSISGIPSRFGGSGSGSDFTLNINTVEPEDVGMYYCQSAHSFPYTFGGGTKLEIK
modifications: 8E5 heavy chain variable region; 8E5 light chain variable region
B4: 6A7: anti-CDCP1 murine monoclonal antibody (hybridoma); VH SEQ ID NO: 243, VL SEQ ID NO: 294 (antibody, V domains shown)
VH: EVQLKESGAELVRPGASVKVSCKASGYSFTSYWMNWVKQRPGQGLEWIGMIHPSDSETKLNQKFRDRASLTVDKSSSTAYMQLSSPTSEDSAVYYCTINYESFYYAMDYWGQGTTVTVSS
VL: DIVMTQSPASLAVSLGQRATISCRASKSVSTSGYSYMHWYQQKPGQPPKLLLYLASNLESGVPARFSGSGSGADFTLNIHPVEEEDAATYYCLHSRELPYTFGGGTKLEIK
modifications: 6A7 heavy chain variable region; 6A7 light chain variable region
B5: G10F6: anti-CDCP1 murine monoclonal antibody (hybridoma); VH SEQ ID NO: 256, VL SEQ ID NO: 306 (antibody, V domains shown)
VH: EVKLVESGPGILQPSQTLSLTCSFSGFSLSTSGMGVSWVRQPSGKGLEWLAHIYWDDDKRYNPSLKGRLTISKDTPRNQVFLEITSVDTTDTATYYCARVPGNWDEDAMDYWGQGTTVTVSS
VL: DIQMTQSPLSLPVSLGDQASISCRSSQNIVHTNGNTYLEWYLQKVGQSPKLLIYKVSNRFSGVPDRFSGSGSGTDFTLKISRVEAEDLGVYYCFQGSHVPYTFGGGTKLEIK
modifications: G10F6 heavy chain variable region; G10F6 light chain variable region
B6: 14A10C5: anti-CDCP1 murine monoclonal antibody (hybridoma); VH SEQ ID NO: 257, VL SEQ ID NO: 307 (antibody, V domains shown)
VH: EVKLVESGPGILQPSQTLSLTCSFSGFSLSTSGMGVSWIRQPSGKGLEWLAHIYWDDEKRYNPSLKSRLTISKDTSSNQVFLKITSVDTADTATYYCAREGSANWEAMDYWGQGTTVTVSS
VL: DIVMTQAALSLPVSLGDQASISCRSSQNIVYTNGITYLEWYLQKPGQSPKLLIYKVSNRFSGVPDRFSGSGSATDFTLKISRVEAEDLGVYYCFQSSHVPWTFGGGTKLEIK
modifications: 14A10C5 heavy chain variable region; 14A10C5 light chain variable region

Key:
Type in all cases: cell-based, human
[1] = tested on: MDA-MB-231 cells; assay: Endocytosis capacity of murine monoclonal antibody (flow cytometry internalization); conditions: antibody 1.5 μg/mL; for Internalization MDA-MB-231 (%) 0.5 h: MDA-MB-231, 0.5 h at 37° C.; for Internalization MDA-MB-231 (%) 1 h: MDA-MB-231, 1 h at 37° C.; for Internalization MDA-MB-231 (%) 2 h: MDA-MB-231, 2 h at 37° C.
Procedure: (§1) The endocytosis capacity of the antibody was detected for 0.5 to 2 hours. MDA-MB-231 and PC3 cells were subjected to digestion with 5 mM EDTA, and plated at 4×10^4 cells/well after cell counting. After adding an Fc blocker (Human TruStain FcX™, Biolegend, 422302) and blocking at room temperature for 10 mins, a test antibody (1.5 μg/mL) was added, and the mixture was incubated at 4° C. for 30 mins, centrifuged, and washed twice with PBS+2% FBS, then the cells were divided into four equal portions (labeled as 0 h, 0.5 h, 1 h, 2 h), cells labeled as 0.5 h, 1 h, 2 h time points were added to a cell culture medium at 200 µL/well, and cultured at 37° C. for 0.5 h, 1 h, 2 h, respectively. Cells at 0 h point were centrifuged to remove supernatant, a secondary antibody (PE anti-human IgG Fc Antibody, Biolegend, 410708) was added, and the mixture was incubated at 4° C. for 30 mins, centrifuged, and washed twice with PBS+2% FBS, and detection was performed using a flow cytometer. After incubation of cells labeled as 0.5 h, 1 h, and 2 h points at 37° C. was completed, a secondary antibody was added (in the same steps as those at 0 h point), Geo-MFI of the signal under the same voltage was collected as detection signal at 0 h, and antibody internalization rate was calculated according to the following equation: Internalization (%)=(Geo-MFI (0 h)-Geo-MFI (0.5, 1, 2 h))/Geo-MFI (0 h)×100%.

[2] = tested on: PC3 cells; assay: as above; conditions: antibody 1.5 μg/mL; for Internalization PC3 (%) 0.5 h: PC3, 0.5 h at 37° C.; for Internalization PC3 (%) 1 h: PC3, 1 h at 37° C.; for Internalization PC3 (%) 2 h: PC3, 2 h at 37° C.
Procedure: as §1

[3] = tested on: MDA-MB-231 cells; assay: Effect of antibody on tumor cell proliferation (CellTiter-Glo); conditions: MDA-MB-231, 96 h
Procedure: (§2) 3000 cells (breast cancer MDA-MB-231, prostate cancer PC-3 cells)/well were plated onto 96-well plates overnight, an antibody at a final concentration of 500 nM to 0.00128 nM (100 nM to 0.000256 nM, 100, 20, 4, 0.8, 0.16, 0.032, 0.0064, 0.00128, 0.000256 nM, respectively) was added; after a 5-fold dilution across 9 concentration points and culturing in a CO2 incubator at 37° C. for 96 h, half of the medium (100 μL) was discarded, and 100 μL of CellTiter-Glo Luminescent Cell Viability assay reagent (Promega, cat #G7570) was added to detect signal values on a BMG microplate reader. The inhibition of antibody on tumor cell growth was calculated by graphpad fitting based on the signal value and antibody concentration.

[4] = tested on: PC-3 cells; assay: as above; conditions: PC-3, 96 h
Procedure: as §2

[5] = tested on: MDA-MB-231 cells; assay: Transwell tumor cell migration experiment; conditions: MDA-MB-231, antibody 10 μg/ml
Procedure: In order to determine the effect of antibodies on tumor cell metastasis, the migration ability of tumor cells was examined in this study according to a transwell experiment. The specific cell migration experiment involved culturing and collecting MDA-MB-231 cells, washing them once with PBS, adjusting the density to 8×10^5 cells/mL, adding the antibody to be tested to the cells such that the working concentration thereof was 10 μg/ml, co-incubating for 30 mins, adding a cell suspension to the upper chamber of the transwell chamber, placing the transwell chamber in the incubator for 12-48 h, then removing the chamber (transwell chamber, to examine cell migration ability), immobilizing the cells, staining the cells with crystal violet for 15 mins, washing, air drying, mounting, and taking photos of 4-5 fields of view under a microscope, and counting the number or area of the stained cells using imageJ analysis software, the number or area was used as the basis for determining tumor cell migration.

| Molecule | Internalization MDA-MB-231 (%) 0.5 h [1] [%] | Internalization MDA-MB-231 (%) 1 h [1] [%] | Internalization MDA-MB-231 (%) 2 h [1] [%] | Internalization PC3 (%) 0.5 h [2] [%] | Internalization PC3 (%) 1 h [2] [%] | Internalization PC3 (%) 2 h [2] [%] | effect on tumor cell growth (FIG. 4a) [3] | effect on tumor cell growth (FIG. 4b) [4] | effect on tumor cell migration (transwell, FIG. 4c) [5] |
| --- | --- | --- | --- | --- | --- | --- | --- | --- | --- |
| B1 | 28.50 | 36.16 | 52.23 | 28.45 | 39.70 | 59.90 | did not exhibit an effect on tumor cell growth | did not exhibit an effect on tumor cell growth | better capability to inhibit tumor cell migration than SEQ135 |
| B2 | 20.76 | 29.93 | 49.69 | 16.54 | 30.28 | 50.50 | did not exhibit an effect on tumor cell growth | did not exhibit an effect on tumor cell growth | better capability to inhibit tumor cell migration than SEQ135 |
| B3 | 24.32 | 38.20 | 53.26 | 6.54 | 17.17 | 42.94 | did not exhibit an effect on tumor cell growth | did not exhibit an effect on tumor cell growth | better capability to inhibit tumor cell migration than SEQ135 |
| B4 | 28.97 | 43.77 | 58.78 | 22.99 | 35.14 | 49.86 | did not exhibit an effect on tumor cell growth | did not exhibit an effect on tumor cell growth | better capability to inhibit tumor cell migration than SEQ135 |
| B5 | 34.49 | 50.70 | 67.02 | 3.36 | 20.68 | 54.36 | did not exhibit an effect on tumor cell growth | did not exhibit an effect on tumor cell growth | better capability to inhibit tumor cell migration than SEQ135 |
| B6 |  |  | 39.23 |  |  | 51.73 |  |  | better capability to inhibit tumor cell migration than SEQ135 |
